Data from article PMC2881539 (Analytical biochemistry, 2010).

Tests used:
Assay in all cases: ELISA
[1] = biological target: Fzd5 CRD (UniProt Q13467); details: cited from earlier work
[2] = biological target: T1, purified hSFRP4 (R & D Systems) (human, UniProt Q6FHJ7 19-346)
T1 sequence (looked up): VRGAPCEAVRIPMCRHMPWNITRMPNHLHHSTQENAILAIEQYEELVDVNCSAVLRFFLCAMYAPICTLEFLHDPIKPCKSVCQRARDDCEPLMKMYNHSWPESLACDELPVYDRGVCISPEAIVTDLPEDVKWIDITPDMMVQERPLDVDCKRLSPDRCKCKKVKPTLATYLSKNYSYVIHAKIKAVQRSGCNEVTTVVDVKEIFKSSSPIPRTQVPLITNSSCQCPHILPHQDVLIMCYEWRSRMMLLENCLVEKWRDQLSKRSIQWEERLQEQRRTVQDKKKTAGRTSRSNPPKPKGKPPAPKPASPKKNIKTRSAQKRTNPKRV

[3] = biological target: mWnt3a-V5/6xHis (mouse, UniProt P27467 19-352)
Chain of mWnt3a-V5/6xHis (P27467 19-352): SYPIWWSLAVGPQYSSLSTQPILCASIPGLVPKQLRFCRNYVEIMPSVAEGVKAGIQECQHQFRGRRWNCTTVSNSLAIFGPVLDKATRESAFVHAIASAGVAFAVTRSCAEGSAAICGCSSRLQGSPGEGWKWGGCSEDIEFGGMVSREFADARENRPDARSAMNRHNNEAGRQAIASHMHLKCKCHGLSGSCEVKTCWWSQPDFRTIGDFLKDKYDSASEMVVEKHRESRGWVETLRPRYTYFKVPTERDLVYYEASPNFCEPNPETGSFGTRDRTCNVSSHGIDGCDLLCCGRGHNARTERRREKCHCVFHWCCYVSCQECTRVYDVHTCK

**Q.** With Wnt7a (from UniProt O00755) as the molecule, how does the Kd [1] read?
**A.** 75.4 nM

B1: rWnt7a V5/6xHis (ligand, UniProt O00755 32-349, looked up)
chain: LGASIICNKIPGLAPRQRAICQSRPDAIIVIGEGSQMGLDECQFQFRNGRWNCSALGERTVFGKELKVGSREAAFTYAIIAAGVAHAITAACTQGNLSDCGCDKEKQGQYHRDEGWKWGGCSADIRYGIGFAKVFVDAREIKQNARTLMNLHNNEAGRKILEENMKLECKCHGVSGSCTTKTCWTTLPQFRELGYVLKDKYNEAVHVEPVRASRNKRPTFLKIKKPLSYRKPMDTDLVYIEKSPNYCEEDPVTGSVGTQGRACNKTAPQASGCDLMCCGRGYNTHQYARVWQCNCKFHWCCYVKCNTCSERTEMYTCK
**Q.** For B1, which Kd [2] is on record?
**A.** 86.5 nM

B2: hFzd5CRD-Fc IgG (Fc fusion, human, UniProt Q13467 27-150, looked up)
chain: ASKAPVCQEITVPMCRGIGYNLTHMPNQFNHDTQDEAGLEVHQFWPLVEIQCSPDLRFFLCSMYTPICLPDYHKPLPPCRSVCERAKAGCSPLMRQYGFAWPERMSCDRLPVLGRDAEVLCMDY
**Q.** Which Kd [3] does the source give for B2 here?
**A.** 83.7 nM
